Measured values published in paper PMC3443293.

Legend:
Experiment in all cases: AUC
[1] = target: human nectin-1 ectodomain (D1-D3) (human) (UniProt Q15223)
[2] = target: human nectin-3 ectodomain (D1-D3) (human) (UniProt Q9NQS3)
[3] = target: mouse nectin-3 ectodomain (D1-D3 with part of the stalk) (mouse) (UniProt Q9JLB9)

human nectin-3 ectodomain (D1-D3), sequence (Q9NQS3 58-359): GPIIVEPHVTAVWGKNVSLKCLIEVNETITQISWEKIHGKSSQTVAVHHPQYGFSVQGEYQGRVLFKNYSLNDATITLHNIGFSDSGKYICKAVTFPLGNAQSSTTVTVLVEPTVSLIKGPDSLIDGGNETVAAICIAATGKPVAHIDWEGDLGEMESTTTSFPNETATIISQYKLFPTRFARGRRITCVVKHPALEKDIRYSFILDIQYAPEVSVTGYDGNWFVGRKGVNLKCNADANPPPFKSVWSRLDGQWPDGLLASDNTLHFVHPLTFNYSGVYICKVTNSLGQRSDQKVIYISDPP
mouse nectin-3 ectodomain (D1-D3 with part of the stalk), sequence (Q9JLB9 58-401): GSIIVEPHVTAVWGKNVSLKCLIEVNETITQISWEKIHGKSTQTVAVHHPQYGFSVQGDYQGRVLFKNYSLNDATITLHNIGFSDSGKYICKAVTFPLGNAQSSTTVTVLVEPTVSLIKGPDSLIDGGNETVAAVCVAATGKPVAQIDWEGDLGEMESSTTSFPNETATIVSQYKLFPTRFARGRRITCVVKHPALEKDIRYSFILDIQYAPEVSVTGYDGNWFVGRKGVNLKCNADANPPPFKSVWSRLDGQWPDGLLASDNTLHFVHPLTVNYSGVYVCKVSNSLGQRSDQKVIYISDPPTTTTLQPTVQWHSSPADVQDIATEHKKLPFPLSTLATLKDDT
human nectin-1 ectodomain (D1-D3) (human), sequence (Q15223 31-337): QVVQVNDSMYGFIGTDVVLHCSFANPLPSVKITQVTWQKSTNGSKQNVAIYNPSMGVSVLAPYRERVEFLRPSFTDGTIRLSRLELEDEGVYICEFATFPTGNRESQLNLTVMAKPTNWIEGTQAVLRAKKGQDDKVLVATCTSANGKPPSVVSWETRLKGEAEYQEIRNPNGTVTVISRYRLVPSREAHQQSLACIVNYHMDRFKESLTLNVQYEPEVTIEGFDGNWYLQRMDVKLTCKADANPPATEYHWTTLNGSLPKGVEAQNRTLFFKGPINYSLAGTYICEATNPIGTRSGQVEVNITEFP

Substance | stoichiometry N [1] | Kd [2] [µM] | stoichiometry N [2] | Kd [3] [µM] | stoichiometry N [3]
human nectin-3 ectodomain (D1-D3) (from UniProt Q9NQS3 58-359) (domain or fragment) | 1 | 228 | 2 | – | –
mouse nectin-3 ectodomain (D1-D3 with part of the stalk) (from UniProt Q9JLB9 58-401) (domain or fragment) | – | – | – | 122 | 2
